To fix the notation:
B1: GpH7-B3 variant T335_04F/GpL16-k0 (antibody, human IgG1, kappa)
heavy: not shown
light: DIVMTQSPLSLPVTPGEPASISCQASESLVHSNRNTYLHWYLQKPGQSPQLLIYKVSNRFSGVPDRFSGSGSGTDFTLKISRVEAEDVGVYYCSQNTHVPPTFGQGTKVEIERTVAAPSVFIFPPSDEQLKSGTASVVCLLNNFYPREAKVQWKVDNALQSGNSQESVTEQDSKDSTYSLSSTLTLSKADYEKHKVYACEVTHQGLSSPVTKSFNRGEC
notes: homodimerized IgG1, mutation in both H chains; also called Ho Ab
B2: GpH7-B3 variant Y300_02A/GpL16-k0 (antibody, human IgG1, kappa)
heavy: not shown
light: B1 light
notes: as for B1
B3: GpH7-B3 variant T335_05P/GpL16-k0 (antibody, human IgG1, kappa)
heavy: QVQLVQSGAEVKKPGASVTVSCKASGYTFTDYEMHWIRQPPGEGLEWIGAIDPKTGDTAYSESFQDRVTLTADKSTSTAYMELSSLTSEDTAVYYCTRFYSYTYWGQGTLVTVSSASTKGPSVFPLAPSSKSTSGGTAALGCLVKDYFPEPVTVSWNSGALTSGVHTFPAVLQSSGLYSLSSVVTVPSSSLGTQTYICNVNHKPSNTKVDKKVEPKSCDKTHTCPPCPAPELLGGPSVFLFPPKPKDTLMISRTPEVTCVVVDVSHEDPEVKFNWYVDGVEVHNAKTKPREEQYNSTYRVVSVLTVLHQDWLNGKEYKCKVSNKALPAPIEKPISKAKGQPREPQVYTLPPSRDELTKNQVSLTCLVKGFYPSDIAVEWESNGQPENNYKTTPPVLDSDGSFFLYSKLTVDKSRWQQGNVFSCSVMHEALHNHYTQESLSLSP
light: B1 light
notes: as for B1
B4: GpH7-B3 variant S337_20W/GpL16-k0 (antibody, human IgG1, kappa)
heavy: not shown
light: B1 light
notes: as for B1
B5: GpH7-B3 variant T335_11K/GpL16-k0 (antibody, human IgG1, kappa)
heavy: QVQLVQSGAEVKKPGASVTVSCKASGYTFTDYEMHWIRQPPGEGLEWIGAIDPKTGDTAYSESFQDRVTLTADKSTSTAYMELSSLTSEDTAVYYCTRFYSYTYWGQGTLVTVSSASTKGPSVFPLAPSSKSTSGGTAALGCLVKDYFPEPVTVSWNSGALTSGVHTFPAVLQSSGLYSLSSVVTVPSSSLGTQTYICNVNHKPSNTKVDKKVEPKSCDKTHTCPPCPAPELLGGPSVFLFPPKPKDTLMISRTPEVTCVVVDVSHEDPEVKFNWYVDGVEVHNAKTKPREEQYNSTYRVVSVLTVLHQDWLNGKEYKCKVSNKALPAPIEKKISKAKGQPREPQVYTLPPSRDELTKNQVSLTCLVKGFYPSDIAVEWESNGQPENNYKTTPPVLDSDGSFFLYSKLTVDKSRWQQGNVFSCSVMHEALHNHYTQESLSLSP
light: B1 light
notes: as for B1
B6: GpH7-B3 variant I336_12R/GpL16-k0 (antibody, human IgG1, kappa)
heavy: not shown
light: B1 light
notes: as for B1
B7: GpH7-B3 variant Y300_14T/GpL16-k0 (antibody, human IgG1, kappa)
heavy: not shown
light: B1 light
notes: as for B1
B8: GpH7-B3 variant Y296_20W/GpL16-k0 (antibody, human IgG1, kappa)
heavy: not shown
light: B1 light
notes: as for B1
B9: GpH7-B3 variant S337_08L/GpL16-k0 (antibody, human IgG1, kappa)
heavy: not shown
light: B1 light
notes: as for B1
B10: GpH7-B3 variant Y300_08L/GpL16-k0 (antibody, human IgG1, kappa)
heavy: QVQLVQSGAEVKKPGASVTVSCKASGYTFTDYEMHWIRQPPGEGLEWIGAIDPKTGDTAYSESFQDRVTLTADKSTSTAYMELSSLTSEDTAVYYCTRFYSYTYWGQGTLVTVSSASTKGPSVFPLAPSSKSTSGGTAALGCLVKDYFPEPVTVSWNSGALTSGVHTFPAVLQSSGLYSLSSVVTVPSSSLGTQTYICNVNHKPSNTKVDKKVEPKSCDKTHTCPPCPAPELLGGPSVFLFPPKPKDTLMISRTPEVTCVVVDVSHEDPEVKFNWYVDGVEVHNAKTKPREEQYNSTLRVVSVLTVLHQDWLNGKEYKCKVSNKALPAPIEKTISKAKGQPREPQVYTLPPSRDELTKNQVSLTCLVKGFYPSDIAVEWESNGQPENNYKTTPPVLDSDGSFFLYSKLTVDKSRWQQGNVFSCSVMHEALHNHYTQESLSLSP
light: B1 light
notes: as for B1
B11: GpH7-B3 variant T335_10E/GpL16-k0 (antibody, human IgG1, kappa)
heavy: not shown
light: B1 light
notes: as for B1
B12: GpH7-B3 variant S337_10E/GpL16-k0 (antibody, human IgG1, kappa)
heavy: not shown
light: B1 light
notes: as for B1
B13: GpH7-B3 variant Y296_12R/GpL16-k0 (antibody, human IgG1, kappa)
heavy: not shown
light: B1 light
notes: as for B1
B14: GpH7-B3 variant S337_15Y/GpL16-k0 (antibody, human IgG1, kappa)
heavy: not shown
light: B1 light
notes: as for B1
B15: GpH7-B3 variant Y300_20W/GpL16-k0 (antibody, human IgG1, kappa)
heavy: not shown
light: B1 light
notes: as for B1
B16: GpH7-B3 variant T335_09D/GpL16-k0 (antibody, human IgG1, kappa)
heavy: not shown
light: B1 light
notes: as for B1
B17: GpH7-B3 variant A330_20W/GpL16-k0 (antibody, human IgG1, kappa)
heavy: not shown
light: B1 light
notes: as for B1
B18: GpH7-B3 variant Y296_11K/GpL16-k0 (antibody, human IgG1, kappa)
heavy: not shown
light: B1 light
notes: as for B1
B19: GpH7-B3 variant Y300_19Q/GpL16-k0 (antibody, human IgG1, kappa)
heavy: not shown
light: B1 light
notes: as for B1
B20: GpH7-B3 variant H268_13S/GpL16-k0 (antibody, human IgG1, kappa)
heavy: not shown
light: B1 light
notes: as for B1
B21: GpH7-B3 variant T335_08L/GpL16-k0 (antibody, human IgG1, kappa)
heavy: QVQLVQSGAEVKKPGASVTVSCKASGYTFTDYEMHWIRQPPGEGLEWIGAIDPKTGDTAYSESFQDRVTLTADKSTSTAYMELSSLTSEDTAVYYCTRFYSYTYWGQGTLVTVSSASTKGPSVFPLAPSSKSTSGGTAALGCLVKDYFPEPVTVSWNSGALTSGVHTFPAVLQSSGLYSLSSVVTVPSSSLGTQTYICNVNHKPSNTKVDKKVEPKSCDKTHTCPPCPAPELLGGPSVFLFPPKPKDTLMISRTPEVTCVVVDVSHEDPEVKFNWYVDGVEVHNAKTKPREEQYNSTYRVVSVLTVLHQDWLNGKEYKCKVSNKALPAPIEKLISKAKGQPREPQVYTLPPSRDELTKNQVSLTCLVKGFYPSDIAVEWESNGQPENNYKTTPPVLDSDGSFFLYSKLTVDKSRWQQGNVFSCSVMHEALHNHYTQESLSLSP
light: B1 light
notes: as for B1
B22: GpH7-B3 variant T335_15Y/GpL16-k0 (antibody, human IgG1, kappa)
heavy: not shown
light: B1 light
notes: as for B1
B23: GpH7-B3 variant T335_07I/GpL16-k0 (antibody, human IgG1, kappa)
heavy: not shown
light: B1 light
notes: as for B1
B24: GpH7-B3 variant S337_19Q/GpL16-k0 (antibody, human IgG1, kappa)
heavy: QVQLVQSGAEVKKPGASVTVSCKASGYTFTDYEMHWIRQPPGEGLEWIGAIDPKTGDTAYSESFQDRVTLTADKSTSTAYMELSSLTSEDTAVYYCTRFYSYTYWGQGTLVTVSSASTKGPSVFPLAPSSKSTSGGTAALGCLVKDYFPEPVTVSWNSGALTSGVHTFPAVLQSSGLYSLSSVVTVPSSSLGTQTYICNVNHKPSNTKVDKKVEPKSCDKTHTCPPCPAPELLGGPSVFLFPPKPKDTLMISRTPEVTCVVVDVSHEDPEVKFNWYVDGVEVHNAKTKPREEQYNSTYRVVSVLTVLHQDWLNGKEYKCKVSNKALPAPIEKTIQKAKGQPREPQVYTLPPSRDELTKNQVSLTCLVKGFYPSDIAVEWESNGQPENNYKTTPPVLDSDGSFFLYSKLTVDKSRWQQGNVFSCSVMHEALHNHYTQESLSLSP
light: B1 light
notes: as for B1
B25: GpH7-B3 variant Y300_03V/GpL16-k0 (antibody, human IgG1, kappa)
heavy: not shown
light: B1 light
notes: as for B1
B26: GpH7-B3 variant T335_16H/GpL16-k0 (antibody, human IgG1, kappa)
heavy: not shown
light: B1 light
notes: as for B1
B27: GpH7-B3 variant A330_19Q/GpL16-k0 (antibody, human IgG1, kappa)
heavy: not shown
light: B1 light
notes: as for B1
B28: GpH7-B3 variant A330_10E/GpL16-k0 (antibody, human IgG1, kappa)
heavy: not shown
light: B1 light
notes: as for B1
B29: GpH7-B3 variant H268_01G/GpL16-k0 (antibody, human IgG1, kappa)
heavy: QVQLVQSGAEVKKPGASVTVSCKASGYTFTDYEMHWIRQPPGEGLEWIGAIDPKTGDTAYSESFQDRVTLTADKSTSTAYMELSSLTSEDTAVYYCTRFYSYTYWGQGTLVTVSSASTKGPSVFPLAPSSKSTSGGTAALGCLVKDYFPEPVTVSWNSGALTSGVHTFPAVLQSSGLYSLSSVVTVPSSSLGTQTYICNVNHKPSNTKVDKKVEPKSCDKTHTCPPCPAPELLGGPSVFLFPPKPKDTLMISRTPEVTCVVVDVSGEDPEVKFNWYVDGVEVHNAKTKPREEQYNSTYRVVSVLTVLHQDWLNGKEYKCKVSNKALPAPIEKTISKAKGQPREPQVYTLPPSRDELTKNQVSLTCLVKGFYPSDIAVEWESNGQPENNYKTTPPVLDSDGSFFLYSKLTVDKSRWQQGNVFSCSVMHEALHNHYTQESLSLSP
light: B1 light
notes: as for B1
B30: GpH7-B3 variant T335_19Q/GpL16-k0 (antibody, human IgG1, kappa)
heavy: not shown
light: B1 light
notes: as for B1
B31: GpH7-B3 variant T335_18N/GpL16-k0 (antibody, human IgG1, kappa)
heavy: not shown
light: B1 light
notes: as for B1
B32: GpH7-B3 variant T335_06M/GpL16-k0 (antibody, human IgG1, kappa)
heavy: not shown
light: B1 light
notes: as for B1
B33: GpH7-B3 variant H268_09D/GpL16-k0 (antibody, human IgG1, kappa)
heavy: not shown
light: B1 light
notes: as for B1
B34: GpH7-B3 variant S337_09D/GpL16-k0 (antibody, human IgG1, kappa)
heavy: not shown
light: B1 light
notes: as for B1
B35: GpH7-B3 variant T335_12R/GpL16-k0 (antibody, human IgG1, kappa)
heavy: not shown
light: B1 light
notes: as for B1
B36: GpH7-B3 variant D265_10E/GpL16-k0 (antibody, human IgG1, kappa)
heavy: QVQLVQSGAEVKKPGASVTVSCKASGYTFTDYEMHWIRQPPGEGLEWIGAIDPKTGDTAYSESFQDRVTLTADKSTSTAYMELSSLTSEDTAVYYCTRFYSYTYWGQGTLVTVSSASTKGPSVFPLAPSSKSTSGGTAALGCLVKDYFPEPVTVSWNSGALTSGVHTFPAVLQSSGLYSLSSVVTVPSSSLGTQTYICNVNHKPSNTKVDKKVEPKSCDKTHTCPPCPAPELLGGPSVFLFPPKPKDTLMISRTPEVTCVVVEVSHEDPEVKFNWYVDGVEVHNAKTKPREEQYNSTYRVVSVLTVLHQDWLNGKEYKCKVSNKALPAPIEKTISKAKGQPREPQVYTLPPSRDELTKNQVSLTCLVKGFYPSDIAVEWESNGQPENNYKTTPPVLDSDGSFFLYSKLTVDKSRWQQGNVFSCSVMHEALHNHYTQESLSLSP
light: B1 light
notes: as for B1
B37: GpH7-B3 variant I336_13S/GpL16-k0 (antibody, human IgG1, kappa)
heavy: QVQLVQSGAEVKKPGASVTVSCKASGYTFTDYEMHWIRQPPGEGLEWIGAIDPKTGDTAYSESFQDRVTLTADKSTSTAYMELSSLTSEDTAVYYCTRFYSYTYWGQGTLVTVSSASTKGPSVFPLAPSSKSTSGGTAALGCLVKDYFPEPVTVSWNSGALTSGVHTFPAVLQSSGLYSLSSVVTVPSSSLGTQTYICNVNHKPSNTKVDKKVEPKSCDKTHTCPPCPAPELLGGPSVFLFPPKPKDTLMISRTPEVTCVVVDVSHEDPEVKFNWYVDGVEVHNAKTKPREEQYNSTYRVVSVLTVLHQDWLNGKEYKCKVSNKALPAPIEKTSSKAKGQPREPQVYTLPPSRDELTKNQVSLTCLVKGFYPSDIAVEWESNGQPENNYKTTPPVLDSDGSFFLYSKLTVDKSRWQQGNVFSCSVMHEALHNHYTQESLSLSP
light: B1 light
notes: as for B1
B38: GpH7-B3 variant I336_14T/GpL16-k0 (antibody, human IgG1, kappa)
heavy: not shown
light: B1 light
notes: as for B1
B39: GpH7-B3 variant H268_18N/GpL16-k0 (antibody, human IgG1, kappa)
heavy: not shown
light: B1 light
notes: as for B1
B40: GpH7-B3 variant A330_01G/GpL16-k0 (antibody, human IgG1, kappa)
heavy: not shown
light: B1 light
notes: as for B1
B41: GpH7-B3 variant Y300_06M/GpL16-k0 (antibody, human IgG1, kappa)
heavy: not shown
light: B1 light
notes: as for B1
B42: GpH7-B3 variant H268_10E/GpL16-k0 (antibody, human IgG1, kappa)
heavy: not shown
light: B1 light
notes: as for B1
B43: GpH7-B3 variant I336_11K/GpL16-k0 (antibody, human IgG1, kappa)
heavy: not shown
light: B1 light
notes: as for B1
B44: GpH7-B3 variant S337_07I/GpL16-k0 (antibody, human IgG1, kappa)
heavy: not shown
light: B1 light
notes: as for B1
B45: GpH7-B3 variant I336_09D/GpL16-k0 (antibody, human IgG1, kappa)
heavy: not shown
light: B1 light
notes: as for B1
B46: GpH7-B3 variant T335_20W/GpL16-k0 (antibody, human IgG1, kappa)
heavy: not shown
light: B1 light
notes: as for B1
B47: GpH7-B3 variant Y300_11K/GpL16-k0 (antibody, human IgG1, kappa)
heavy: not shown
light: B1 light
notes: as for B1
B48: GpH7-B3 variant Y300_13S/GpL16-k0 (antibody, human IgG1, kappa)
heavy: not shown
light: B1 light
notes: as for B1
B49: GpH7-B3 variant S337_06M/GpL16-k0 (antibody, human IgG1, kappa)
heavy: not shown
light: B1 light
notes: as for B1
B50: GpH7-B3 variant I336_08L/GpL16-k0 (antibody, human IgG1, kappa)
heavy: not shown
light: B1 light
notes: as for B1
B51: GpH7-B3 variant S337_04F/GpL16-k0 (antibody, human IgG1, kappa)
heavy: not shown
light: B1 light
notes: as for B1
B52: GpH7-B3 variant A330_04F/GpL16-k0 (antibody, human IgG1, kappa)
heavy: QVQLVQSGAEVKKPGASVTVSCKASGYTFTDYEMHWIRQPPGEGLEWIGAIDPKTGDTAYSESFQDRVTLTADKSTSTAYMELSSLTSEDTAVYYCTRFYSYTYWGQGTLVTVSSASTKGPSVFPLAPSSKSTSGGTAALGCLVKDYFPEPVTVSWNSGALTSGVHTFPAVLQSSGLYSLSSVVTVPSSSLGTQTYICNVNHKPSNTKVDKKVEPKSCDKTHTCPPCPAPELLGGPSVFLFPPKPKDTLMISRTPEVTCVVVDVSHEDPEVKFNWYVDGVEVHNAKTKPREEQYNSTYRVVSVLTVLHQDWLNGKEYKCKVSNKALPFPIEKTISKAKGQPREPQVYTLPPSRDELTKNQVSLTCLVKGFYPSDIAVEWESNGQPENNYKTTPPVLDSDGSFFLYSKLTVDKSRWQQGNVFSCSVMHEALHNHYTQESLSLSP
light: B1 light
notes: as for B1
B53: GpH7-B3 variant Y296_06M/GpL16-k0 (antibody, human IgG1, kappa)
heavy: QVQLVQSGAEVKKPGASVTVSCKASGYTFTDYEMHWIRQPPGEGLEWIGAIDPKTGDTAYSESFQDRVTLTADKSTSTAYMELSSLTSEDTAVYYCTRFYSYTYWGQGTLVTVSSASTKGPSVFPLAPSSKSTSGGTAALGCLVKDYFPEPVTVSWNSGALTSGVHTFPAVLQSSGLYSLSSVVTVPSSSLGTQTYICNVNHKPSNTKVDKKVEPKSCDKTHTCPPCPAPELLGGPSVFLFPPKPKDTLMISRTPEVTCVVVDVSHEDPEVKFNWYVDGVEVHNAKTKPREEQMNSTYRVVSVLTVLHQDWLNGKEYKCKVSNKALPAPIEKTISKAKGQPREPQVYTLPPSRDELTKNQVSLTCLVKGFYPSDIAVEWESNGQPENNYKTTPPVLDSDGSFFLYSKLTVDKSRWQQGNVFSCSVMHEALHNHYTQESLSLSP
light: B1 light
notes: as for B1
B54: GpH7-B3 variant Y296_16H/GpL16-k0 (antibody, human IgG1, kappa)
heavy: not shown
light: B1 light
notes: as for B1
B55: GpH7-A5/GpH7-B3 variant T335_04F/GpL16-k0 (antibody, human IgG1, kappa)
heavy 1: not shown
heavy 2: not shown
light: B1 light
notes: heterodimerized IgG1, mutation in one H chain only; also called He Ab

One test deals with T1, FcγRIa (human, UniProt P12314 16-292).
T1 construct: extracellular domain; soluble His-tagged extracellular domain expressed in FreeStyle293 cells, used as analyte in Biacore; also called FcgRI; CD64
T1 sequence (P12314 16-292): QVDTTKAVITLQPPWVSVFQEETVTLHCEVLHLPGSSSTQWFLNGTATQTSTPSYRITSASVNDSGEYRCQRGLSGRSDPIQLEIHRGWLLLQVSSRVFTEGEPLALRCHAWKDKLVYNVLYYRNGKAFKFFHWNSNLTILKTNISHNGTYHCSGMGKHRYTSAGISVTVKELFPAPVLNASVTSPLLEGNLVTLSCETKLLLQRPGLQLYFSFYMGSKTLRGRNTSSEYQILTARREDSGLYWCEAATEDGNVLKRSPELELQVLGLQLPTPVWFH
Description: SPR (Biacore), captured antibody, FcγRIa analyte; relative to GpH7-B3/GpL16-k0.
In the case of B1, the Ho/Con_1a was 105 relative, control = 100. For B2, the Ho/Con_1a is 110 relative, control = 100. Still for that read-out and setting: the same measure for B3: 106 relative, control = 100; for B4: 104 relative, control = 100; for B5: 103 relative, control = 100. As to B6, the Ho/Con_1a is 109 relative, control = 100.

For the molecule B7, the Ho/Con_1a is 110 relative, control = 100. In the case of B8, the Ho/Con_1a was 106 relative, control = 100. The same measure, in the same setting: the same measure for B9: 105 relative, control = 100. Take B10: the Ho/Con_1a was 109 relative, control = 100. On to B11, for which the Ho/Con_1a is 108 relative, control = 100. For B12, the Ho/Con_1a is 104 relative, control = 100. As for B13, the Ho/Con_1a was 103 relative, control = 100. As to B14, the Ho/Con_1a is 104 relative, control = 100.

As for B15, the Ho/Con_1a is 110 relative, control = 100. On the same count and under the same terms, the same measure for B16: 107 relative, control = 100.

On to B17, for which the Ho/Con_1a is 108 relative, control = 100. On the same count and under the same terms, with B18 the figure was 102 relative, control = 100. Consider B19, for which the Ho/Con_1a is 110 relative, control = 100. For B20, the Ho/Con_1a is 110 relative, control = 100. In the case of B21, the Ho/Con_1a is 105 relative, control = 100. On to B22, for which the Ho/Con_1a was 106 relative, control = 100. B23: the Ho/Con_1a was 105 relative, control = 100. On the same count and under the same terms, with B24 the figure was 105 relative, control = 100; with B25, 112 relative, control = 100.

Regarding B26, the Ho/Con_1a was 104 relative, control = 100. On the same count and under the same terms, with B27 the figure was 106 relative, control = 100; with B28, 108 relative, control = 100; with B29, 108 relative, control = 100. Consider B30, for which the Ho/Con_1a is 105 relative, control = 100. B31: the Ho/Con_1a was 102 relative, control = 100. Still for that read-out and setting: the same measure for B32: 106 relative, control = 100; for B33: 110 relative, control = 100; for B34: 106 relative, control = 100. With B35, the Ho/Con_1a is 106 relative, control = 100.

As to B36, the Ho/Con_1a is 103 relative, control = 100. Still for that read-out and setting: with B37 the figure was 110 relative, control = 100.

Turning to B38, the Ho/Con_1a is 111 relative, control = 100. Same read-out and setting: the same measure for B39: 108 relative, control = 100; for B40: 106 relative, control = 100. Same read-out and setting: with B41 the figure was 111 relative, control = 100; with B42, 112 relative, control = 100; with B43, 107 relative, control = 100. For the molecule B44, the Ho/Con_1a is 105 relative, control = 100.

In the case of B45, the Ho/Con_1a is 108 relative, control = 100. On the same count and under the same terms, with B46 the figure was 104 relative, control = 100. On the same count and under the same terms, the same measure for B47: 101 relative, control = 100. Still for that read-out and setting: the same measure for B48: 110 relative, control = 100.

As to B49, the Ho/Con_1a is 102 relative, control = 100. The same measure, in the same setting: with B50 the figure was 109 relative, control = 100. Same read-out and setting: with B51 the figure was 105 relative, control = 100; with B52, 107 relative, control = 100; with B53, 104 relative, control = 100. Turning to B54, the Ho/Con_1a was 105 relative, control = 100.

In the next test the target is T1, FcγRIa. Description: SPR (Biacore), captured antibody, FcγRIa analyte; relative to GpH7-A5/GpH7-B3/GpL16-k0.
Regarding B55, the He/Con_1a is 105 relative, control = 100.

These data come from patent US20150344570A1 (published 2015).
